Our source for the Kd values is paper PMC8914513.

Experiment [1] has as its target CK2alpha-phosphorylated thymidylate synthase fraction (pTS), as used in MST (human) (UniProt P04818). Kind of experiment: MST; two proteins in solution, Premium capillaries: labeled DHFR with SHMT 157 uM-4.79 nM; labeled SHMT with TS 62.0 uM-1.9 nM; labeled pTS with SHMT 157 uM-4.79 nM; Kd model fit.
For experiment [2], the target named is DHFR (Homo sapiens) (UniProt P00374). Kind of experiment: QCM-D. The note with it: cited from earlier work.
Experiment [3] shares this target. Briefly: MST. Conditions: cited from earlier work.
Experiment [4] addresses serine hydroxymethyltransferase, cytosolic (SHMT1), His-tagged, immobilised in QCM-D (UniProt P34896). Briefly: QCM-D (quartz crystal microbalance with dissipation monitoring); two proteins: 5 uM His-tagged SHMT immobilised on His-tag capturing sensor QSX340; tagless ligand introduced (0.1-1.0 uM or 0.5-7.0 uM for TS, pTS or DHFR); 20 mM Tris-HCl pH 7.6, 100 mM (salt not given), 10 mM MgCl2, 0.05% Tween 20, 25 C, 200 ul/min; Langmuir isotherm fit.

thymidylate synthase, sequence (P04818 2-313): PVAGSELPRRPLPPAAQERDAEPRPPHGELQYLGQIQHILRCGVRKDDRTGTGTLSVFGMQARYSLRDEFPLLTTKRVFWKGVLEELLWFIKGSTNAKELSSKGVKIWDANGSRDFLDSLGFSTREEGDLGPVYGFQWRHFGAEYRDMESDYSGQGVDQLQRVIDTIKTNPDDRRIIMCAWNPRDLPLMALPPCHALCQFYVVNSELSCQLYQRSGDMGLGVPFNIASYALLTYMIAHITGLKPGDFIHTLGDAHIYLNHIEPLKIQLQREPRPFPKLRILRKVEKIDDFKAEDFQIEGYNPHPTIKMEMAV
DHFR (Homo sapiens), sequence (P00374 whole entry): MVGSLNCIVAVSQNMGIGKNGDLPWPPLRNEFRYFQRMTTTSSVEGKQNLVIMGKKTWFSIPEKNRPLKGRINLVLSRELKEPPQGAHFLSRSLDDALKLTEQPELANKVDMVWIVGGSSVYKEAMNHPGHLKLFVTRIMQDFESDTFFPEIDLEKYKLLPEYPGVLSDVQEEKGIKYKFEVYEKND
CK2alpha-phosphorylated thymidylate synthase fraction (pTS), as used in MST (human), sequence (P04818 whole entry): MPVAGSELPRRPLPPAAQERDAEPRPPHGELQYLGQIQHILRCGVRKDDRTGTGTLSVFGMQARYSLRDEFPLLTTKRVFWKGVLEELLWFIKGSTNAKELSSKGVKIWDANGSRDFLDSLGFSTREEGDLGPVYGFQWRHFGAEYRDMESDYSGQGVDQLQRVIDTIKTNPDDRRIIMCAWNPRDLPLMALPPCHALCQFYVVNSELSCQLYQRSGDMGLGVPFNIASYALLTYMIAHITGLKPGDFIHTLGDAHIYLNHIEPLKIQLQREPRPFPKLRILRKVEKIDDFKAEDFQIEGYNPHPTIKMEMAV
serine hydroxymethyltransferase, cytosolic (SHMT1), His-tagged, immobilised in QCM-D, sequence (P34896 whole entry): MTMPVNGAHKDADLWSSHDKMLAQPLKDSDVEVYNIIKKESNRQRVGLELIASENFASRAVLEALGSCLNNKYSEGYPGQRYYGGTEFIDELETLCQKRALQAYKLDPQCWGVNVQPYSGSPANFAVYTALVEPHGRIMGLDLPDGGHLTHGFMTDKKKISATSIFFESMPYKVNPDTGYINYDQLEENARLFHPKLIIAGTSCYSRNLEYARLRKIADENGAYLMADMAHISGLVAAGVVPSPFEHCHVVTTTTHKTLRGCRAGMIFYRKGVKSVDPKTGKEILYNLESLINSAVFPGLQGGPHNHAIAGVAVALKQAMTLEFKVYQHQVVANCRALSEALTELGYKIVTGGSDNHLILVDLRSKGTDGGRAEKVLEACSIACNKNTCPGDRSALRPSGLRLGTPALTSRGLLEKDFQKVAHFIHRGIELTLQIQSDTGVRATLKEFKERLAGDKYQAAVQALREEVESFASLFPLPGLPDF

A word on the Kd: it is a measure of binding affinity in units of concentration. As to “serine hydroxymethyltransferase, cytosolic (SHMT1), as used in MST (from UniProt P34896 1-483) (enzyme)”, in experiment [1], the Kd came out at 0.219 µM.

Regarding “thymidylate synthase (from UniProt P04818)”, the Kd is 7.6 µM with DHFR (Homo sapiens) [2] and 2.8 µM in the experiment with DHFR (Homo sapiens) [3].

Consider “CK2alpha-phosphorylated thymidylate synthase fraction (pTS), tagless ligand in QCM-D (from UniProt P04818 1-313) (enzyme)”, for which the Kd in experiment [4] was 5.35 µM.
